Data published in PMC3763809.

Molecular target: nucleosome containing the H3(1-132)-QFI chimera (Drosophila | budding yeast), P02299
Assay: ITC

Kd: 300 nM
Binder: GLRKSTRVKVAPLQYWRNEKIVY (domain or fragment, modifications not checked) [budding yeast CENP-C motif]
